Test: yeast display, Sf9 membrane polyspecificity reagent, FACS + sequencing; frameworks hold sequencing errors
Method in brief: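 A nanobody's polyreactivity label depends on the gate it was sorted from. Yeast display cells were stained with 10% biotinylated, detergent-solubilized Sf9 membrane reagent for 1 hour at 4 °C, enriched on streptavidin microbeads and sorted by FACS. The low and high (top ~1%) gates were set on anti-HA fluorescence for expression and streptavidin fluorescence for reagent binding.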

Row | Sequence | polyreactivity (PSR sort gate)
1 | QVQLVESGGGLVQAGGSLRLSCAASGFTFVDYDMGWYRQAPGKERELVAAITYSGGSTSYADSVKGRFTISRDYAKNTVYLQMNSLKPEDTAVYYCNTEGFLSAVYAFGYWGQGTQVTVSS | low polyreactivity
2 | QDQLVESGGGLVQAGGSLRLSCAASVSTFILNAMGWYRQAPGKERELVATISSSDTSTYYADSVKGRFTISRDNAKNTVYLQMNSLKPEDTAVYYCNADYYTTSYLQRVYHYGVEYDYWGQGTQVTVSS | low polyreactivity
3 | QVQLEESGGGLVQAGGSLRLSCAASGSTFYVYAMGWYIQAPGKERELVAAITDSGGSTYADSVKGRFTISRDNAKNTVYLQMNSLKPEDTAVYADSTYTWYYYYWGQGTQVTVSS | low polyreactivity
4 | QVQLVESGGGLVQAGGSLRLSCAASGFTFNYYAMGWYRQAPGKERELVAAITSSGGSTYYADSVKGRFTISRDNAKNTVYLQMNSLKPEDTAVYYCNAAVYAHRYIYGFDYWGQGTQVTVSS | high polyreactivity
5 | QVQLVESGGGLVQARCSLRLSCDASGSIFPHYAMGWYRQAPGKEREFVATISGSTGRTYYADSVKGRFTISRDYAKNTVYLQMNSLKTEDTAVYYCATSVGYYLPPIKYDYWGQGTQVTVSS | low polyreactivity
6 | QVQLVESGGGLVQAGGSLRLSCAASGLIFIIYTRGWSRQAPGKERELVAAITRRGGITYYADSVKGRFTISRDNAKNTVYLQMNSLKPEDTAVYYCAVVRPYNIWYDYWGQGTQVTVSS | low polyreactivity
7 | QLQPVESGGGLVQAGGSLRLSSAASGSTFVSYDRGWYRQAPGKERALVAVITSGGSTNYADSVKGRFTISRDNAKNTVYLQMNSLKPEETAVYYCAKRRYGRSGGSRYHYWGQGTQVTVSS | high polyreactivity
8 | QVQLVESGGGLVQEGGSLRISCAASGRTFIGYTIGWYRQAPRKERELFAAITWNGGRTYYADSVKGRFTISRDNAKNTVYLQMNSLKPEVTAVYYCAAPRRVVIGGGDYWGQGTQVTVSS | high polyreactivity
9 | QVQLVESGGGLVQAGGSLRLSCAASGFTFRYYAMGWYRQAPGKERELVASISWSSGSTHYADSVKGRFTISRDNAKNTVYLQMNSLKPEDTAVYYCNARHRTSSMHYWGQGTQVTVSS | high polyreactivity
10 | QVQLVESGGGLVQAGGSLRLSCDASGSIFRYYGMGWYRQAPGKERELVAAISARGGSTRYADSVKGRFTISRDNAKNTVYLQMNSLKPEDTAVYYCAAGYPYDYDYWGQGTQVTVSS | high polyreactivity
11 | QVQLVASGGGLVQAGGSLRLSCAASGYTLFRNAMGWYRQAPGKERELVAAISRSGARTYYADSVKGRFTISRDNAKNTVYLQMNSLLPEDTAVYYCAAVIKWTKDDYWGQGTQVTVSS | high polyreactivity
12 | QVQLVESGGGLVQAGGSLRLSCAASGRIFGYYAMGWYRQAPGKERELVAAISYSGGSTYYADSVKGRFTISRDNAKYTVFLQMNSLKPEDTAVYYCNKVYSIRGYWGQGTQVTVSS | high polyreactivity
13 | QVQLVESGGGLVQAGGSLRLSCAASGRTFRRNAMGWYRQAPGKEWELVAAISKSGGRTYYADSVKGRFTISRDNAKNTVYLQMNSLKPEDTAVYYCAARGYGYIPDNGDYDYWGQGTQVTVSS | high polyreactivity
14 | QVQLVESGGGLVQAGGSLRLSCAASGGTFYYNAMGWYRQAPGKERELVAAITSGDRTYYADSVKGRFTISRDIAKNTVYLQMNSLKPEDTAVSYCARAGKTRAGYDYWGQGTQVTVSS | high polyreactivity
15 | QVQLVETGGGLFQAGGSLRLSCAASGFSFGRYAMGWYRQAPGKERELVAAISRGGSSTYYADSVKGRFTISRDTAKNTVYLQMNSLKPEDTAVYYCNKVIIWARFDYWGQGTQVTVSS | high polyreactivity
16 | QVQLVESGGGLVQAGGSLRLSCAASGRIFIDNAMGWYRQAPGKERELVAAISWTGGRTYYADSVKGRFTISRDNAKKTVYLQMNSLKPEDPAVYYCAAKQYTRFGYYYWGQGSQVTVSS | high polyreactivity
17 | QVQLVESGGGLVQAGGSLRLSCAASGITLRGNAMGWYRQSPGKERELVAAIRTSGGRTYYADSVKGRFTISRDNAKNTVYLQMNSLIPEDTAVYYCAADYDSSYAYRTPYGYWGQGTQVTVSS | low polyreactivity
18 | QVQLVESGGGLVQAGGSLRLSCAASGIFRGYAMGWYRQAPGKERELVAAISWGGGSTYYADSVKGRFTISRDNAKNTVYLQMNSLKPEDTAVYYCIAADFGWDYAYYYWGQGTQVTVSS | low polyreactivity
19 | QVQLVESGGGLVQAGGSLRLSCAASGSTFYAYTMGWYRQAPGKERELVAAITGRGGRTYYADSVKGRFTISRDNAKNTVYLQMNSLKPEDTAVYYCAAVYRKYPYSDYDYWGQGTQVTVSS | high polyreactivity
20 | QVQLVESGGGLVQAGGSLRLSCAASGSIFTGYAMGWYRQAPGKERELVAAITYGSGRTYYADSVKGRFTISRDNAKNTLYLQMNSLKPEDTAVYYCAAKWSPYYYYIGYDYWGQGTQVTVSS | low polyreactivity
21 | QVQLVESGGGLDQAGGSLRLTCAASGGTFVSNAMRWSRQAPGKERELVAAISSSTGSTYYADSVKGRFTISRDNAKKTVYLQMISLKPEDTAVYYCAADSWWDYDSWGQGPQVTVSS | low polyreactivity
22 | QVQLEESGGGLVQAGGSLRLSCAASGSTFYDYAMGWYRQAPGKERELVAAINGNGDSTYYADSVKGRFTISRDNAKNTVYLQMNSLKPEDTAVYYCAAYLGWGYDYWGQGTLVTVSS | low polyreactivity

Row | Sequence | polyreactivity (PSR sort gate)
23 | QVQLVESGGGLVQAGGSLRLSCAASGRIFARNAMGSYRQAPGKERELVATIRVGGGSTYYADSVKGRFTISRDNAKNTVYLQMNSLKPEDTAVYYCAVRQLYSYPGDRRGYYWGQGTQVTVSS | low polyreactivity
24 | QVQLVESGGGLVQAGGSLRLSCAASGSIFAANALGWYRQAPGKERELVAAITSGGGSTYYADSVKGRFTISRDNAKNTVYLQMNSLKPEDTAVYYCAARSLVQDHAYGNNYWGQGTQVTVSS | low polyreactivity
25 | QVQLVESGGGLVQAGGSLRLSCAASGRTFPYYVMGWYRQAPGKERELVAAISTTGGSTYYADSVKGRFTISRDNAKNTVYLQMNSLKPEDTAVYYCAARRLIRDNLGYDYWGQGTQVTVSS | high polyreactivity
26 | QVQLVESGGGLVQAGCSLRLRSAASGSIFSGYAMGWYRQAPWKERELDAVISSTGDSTYYADSVKGRFTISRDYAKNTVYLQMNSLKPEDTAVYYCAAYHGPWKWTTRYGYWGQGTQVTVSS | low polyreactivity
27 | QVQLVESGGGLVQAGGSLRLSCAASGRTFLYYAMGWYRQAPGKERELVAGITSGGSTNYADSVKGRFTISRDNAKNTVYLQMNSLKPEATAVYYCAVDQGYSRTADVNYDYWGQGTQVTVSS | low polyreactivity
28 | QVQLVESGGGLVQAGGSLRLSCAASGGLFTAYTMGWYRQAPGKERELVAVISSGGGRTYYADSVKGRFTISRDNAKNSVYLQMNSRKPEDTAVYYCNARVYVSANKYDYWGQGTQVTVSS | high polyreactivity
29 | QVQLVESGGGLVQAGGSLRLSCAASGSTFSRYAMGWYRQAPGKERDLVAAISWGGNTYYADSVKGRFTISRDNAKNTVYLQMNSLKPEDTAVYYCNRYSKLYNTMDYWGQGTQVTVSS | high polyreactivity
30 | RVQLQESGGGLVQAGGSLRLSCAASGTIFIRGDMGWYRQAPGKEREFVATIDTGSNTYYADSEKGRFTISRDNATNAVYLHMNCLKPGDTAFYYCVVDYQLSGRLRYWGQGTQVTLSS | low polyreactivity
31 | QVQLVESGGGLVQAGGSLRLSCAASGSTFAKYAMGWYRQAPGKERELVASIRLSGGSTYYADSVKGRFTISRDNAKNTVYLQMNSLNPEDTAVYYCNKQFATFYYGFDYYYWGQGTQVTVSS | low polyreactivity
32 | QVQLVESGGGLVQAGGSLRLSCAASGSTFAWYAMGWYRQAPGKERELVAVITSTGRTYYADSVKGRFTISRDNAKNTVYLQMNSLKPEDSAVYYCAAQYGGGYLKPYRREYWGQGTQVTVSS | high polyreactivity
33 | QVQLVESGGGIVQAGGSLRLSCAASGRTYPGYAMGWYRQAPGKERELVATITFSDGSTYYADSVKGRFTISRDNAKNTVYLQMNSLKPVDTAVYYCNARRSYFLRYGVNYWGQGTQVTVSS | low polyreactivity
34 | QVHLVESGGGLVQAGGSLRLSCAASGSIFYYNAMGSYRHAPGKERELVAAINWSGDRTYYADSVKGRFTISRDNAKNTVYLQMNSLKPEYTAVYYCAATAWPGRYWRQEVDYWGQGTQVTVSS | high polyreactivity
35 | QVQLVESGGGLVQAGGSLRLSCAASGFIFTEYAMGWYRQAPGKERELVAAISRSDDGTHYADSVKGRFTISRDYAKNTVYLPMNSLKPEDTAVYDCAAYRDYQYDYWGQGTQVTVSS | low polyreactivity
36 | QVQLVESVGGLVQAGGSHRLSCAASGRTFQSNGMGWYRHAPGKERELDAAITWSSGTTYYADSVKGRFTISRDNAKNTVYLQMNSLKPEDTAVYYCAADCGHRNCLYYSGFGYWGQGTQVTVSS | low polyreactivity
37 | QVQLVESGGGLVQAGGSLRLSCAASGSTFGVYAMGWYRQAPGKERELVAAISGSGGSTYYADSVKGRFTISRDNAKNTVYLQMNSLKPEDTAVYYCAAKVRHYYSASNYYYWGQGTQVTVSS | high polyreactivity
38 | QVQLVESGGGLVQAGGSLRLSCAASGRIFAYYAMGWYRQAPGKERELVAAITTNGGGTYYADSVKGRFTISRDNAKNTFYLQMNSLKPEDTGVYYCNAVKQRSSIFDYWGQGTQVTVSS | low polyreactivity
39 | QVQLVESGGGLVQAGGSLRISCAASVSIFPGYAMGWSRQAPGKERELVATITWSGGSTYYADSVKGRFTISRDNAKNTVYLQMNSLKPEDTAVYYCNADSNWYYQWNYYCLYDYWGQGTQVTVSS | low polyreactivity
40 | QDQLVESGGGLVQAGGSLRLSCAASGLTFRKNAMGWSRQAPGKERELVAAISTGGRTYYADSVKGRFTISRDNAKNTVYLQMNSLKPEDTAVYYCNTVYVKSGLDYWGQGTQVTVSS | high polyreactivity
41 | QVQLVESGGGLVQAGGSLRLSCASSGSTFNRYAMVWYRQAPGKERELVAAISGSGSSTYYADSVKGRFTISRDNAKNTVYLQMNSLKPEDNAVYYCAAVRYHKFREYNSWGQGTQVTVSS | high polyreactivity
42 | QVQLVESGGGLVQAGGSLRLSCAASGRIFYVNAMGWYRQAPGKERELVATIRYSGGSTYYADSVKGRFTISRDNAKNTVYLQMNSLKPEDTAVYYCAARVADYYPGRGYGYWGQGTQVTVSS | high polyreactivity
43 | QVQLVESGGGLVQAGGSLRLSCAASGFIFSSYAMGWYRQAPGKERELVAAITVRAGRTYYADSVKGRFTISRDNATNTVYFQMNSVKAEDTAVDYCAAAYRHPYGKYVYWGQGTQVTVSS | high polyreactivity

From the nanobody polyreactivity screen of Harvey et al. (2022)
